± gives the uncertainty stated by the source.

A short description of the series: amyloid nucleation score (Sup35N fusion, yeast selection) (log enrichment); library NNK1; higher = more nucleation; inactive = no reads after selection. The gist of the method:
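Psi-negative yeast expressed Sup35N fused to peptides of 20 random codons. They were induced 24 hours with 100 μM copper sulfate, grown 7 days at 30°C without adenine and uracil, and their plasmid inserts from input and output were Illumina-sequenced. The nucleation score is the DiMSum log enrichment of output over input reads, centred on the mode score of non-aggregating sequences. Sequences with under 100 input reads were excluded.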
QSVQHFGGYTKTLGASMGTF yielded an amyloid nucleation score of -0.797 ± 2.4. Regarding QSVWEYNGTFSLRYRDMTGY, the amyloid nucleation score worked out at 0.477 ± 0.65. QTRRVVHSGN returned an amyloid nucleation score of 0.284 ± 0.81. QTVGKVDVVDCLVLVVRLTI showed an amyloid nucleation score of -0.003 ± 0.57. In turn, QVCLNDRNSSYVMRDICVY had an amyloid nucleation score of -0.334 ± 1.2. Substance QVDHKIWKGTVYDLSMGMM gave an amyloid nucleation score of -0.35 ± 0.46. As for QVHPPMTTGPC, the amyloid nucleation score came to 0.291 ± 0.53. On to QVNNPSTWLMRNQIDQKLLR, for which the amyloid nucleation score is -1.8 ± 1.7.

The substance QVSTNLVWDL gave an amyloid nucleation score of 0.614 ± 1.2. To QVVFE belongs 0.1 ± 0.68; to QVYEDGRAICHLTLGRDCNL, 2.22 ± 0.47. In turn, QWCVKESAFIYEYRLSGDCR registered an amyloid nucleation score of 0.877 ± 0.32. QYFSWGRVATCSACG: the amyloid nucleation score turned out to be 0.309 ± 0.62. As to QYHLWFMCAAVDRMKNGPFG, the amyloid nucleation score was 0.049 ± 0.36.

As for QYSGYNRRDDSFPSWGCLLT, the amyloid nucleation score entry is “inactive”. Take RADGLHASETVGSLL: the amyloid nucleation score was -1.13 ± 2.7. Consider RAFNRIINHRTEGNNPYYFL, for which the amyloid nucleation score result is “inactive”. The result for RAHNKISDDTRAFMGSIFSE reads -0.05 ± 1.4; that for RAHVLLLFMNCRRCKQTMIR, -0.88 ± 1.1. On to RAIMRKIYYHVMMIWI, for which the amyloid nucleation score was 0.153 ± 0.41. RAMCKNQCSYVMR showed an amyloid nucleation score of 0.003 ± 0.37. On to RAMDYFALEIQLVPRRLVQL, for which the amyloid nucleation score came to 0.18 ± 0.41.

For the substance RAMTVLLGGNFQMIIKTFEL, the amyloid nucleation score came out at 3.09 ± 0.074.

RARRGWSTGDEQHMSGKGIK gave an amyloid nucleation score of 0.097 ± 0.49. RASHGAYDNFRGKKFMMRVM: the amyloid nucleation score is -1.01 ± 0.54. For the substance RATCVFCYTICFSWPSVWTF, the amyloid nucleation score is 3.5 ± 0.062. Turning to RAWQHNFGKIMRSPRVFVRW, the amyloid nucleation score is -1.4 ± 0.94. RCEGYFSVDVRGYSMLEIPG: the amyloid nucleation score was -0.365 ± 1.3. For the substance RCISIRAYVTLFRNEYLCSN, the amyloid nucleation score was 4.86 ± 0.1. The substance RCLGVCYTLDVFRSRMLDKL yielded an amyloid nucleation score of -0.097 ± 0.44. Take RCLQKPMRLRSQKIKQCVLR: the amyloid nucleation score is -0.341 ± 1.4.

RCMGGGFRRRVNMYETPGIR came in with an amyloid nucleation score of -0.387 ± 0.79. To RCMNWVKCDRNPCVMLSIGT belongs “inactive”; to RCSFIS, -0.682 ± 0.75. With RCSFSGNYIIILLAVRTYFE, the amyloid nucleation score stood at 1.1 ± 0.47. Substance RCSNLGFKFWR yielded an amyloid nucleation score of -0.332 ± 0.39.

RCVFNRIKDFSVRDRWSFSG: the amyloid nucleation score stood at 1.03 ± 0.73. To RCVIDDKLWGISLRGPMMGV belongs -1.48 ± 1.9.

Take RCVMRAHFSTWLHKVSTSVW: the amyloid nucleation score was 0.677 ± 0.54.

RCVSAFLLLFSMHRHG came in with an amyloid nucleation score of 1.28 ± 0.36. Consider RCYHWVDLVCVRVGTRACFL, for which the amyloid nucleation score came out at 0.877 ± 1.1.

Regarding RCYVDKSYNGDWASSAGQKH, the amyloid nucleation score was found to be 0.065 ± 0.44. To RDCPTNIVAGTLLCLMAEWT belongs -0.549 ± 1; to RDGIMYG, 0.505 ± 0.39; to RDHTIRPLWIAGSHMQFLNR, 0.477 ± 0.34. Substance RDIYRVYNV displayed an amyloid nucleation score of -1.05 ± 0.72. RDLPFVTSSLCCSNTSGCMF displayed an amyloid nucleation score of 0.429 ± 0.53.

In turn, RDRDVEFTNDL yielded an amyloid nucleation score of 0.614 ± 0.75.

Substance RDSAL displayed an amyloid nucleation score of 0.274 ± 0.4. RDTHRDNRNLPSHLSSVYRK: the amyloid nucleation score is -1.35 ± 2.4. Consider RDTNVWFHT, for which the amyloid nucleation score is -0.267 ± 1.1. RDWLLTLVLTLSQGPTTCAT showed an amyloid nucleation score of 0.247 ± 1.4. To RDYYIVNSGLKLEYHLLI belongs 3.77 ± 0.051; to REVWRLFILSRVVGYKVIL, 0.142 ± 0.22. The result for REYNSYLLGVGHNLQLRSYI reads “inactive”; that for RFHSFYNPQSSIDITLVGGF, 4.65 ± 0.089. As for RFHWACKVYLSNYMV, the amyloid nucleation score was 0.69 ± 0.25. Consider RFIIFNHDLGLRD, for which the amyloid nucleation score was -0.384 ± 0.51. Substance RFKCDVTTVDW came in with an amyloid nucleation score of 0.108 ± 0.24. As for RFRFMLVFSNLSLL, the amyloid nucleation score is -0.022 ± 0.53.

On to RFRFNWLNSQNLQRFVGTFK, for which the amyloid nucleation score is 0.433 ± 0.3.

In turn, RFSRVFIRLMGDVALSSGLL registered an amyloid nucleation score of 0.532 ± 0.53. In turn, RFTNIFAKNRLCRLDMRRNT showed an amyloid nucleation score of -0.211 ± 0.56. Regarding RFVCQPNRWFHNKRGVGRET, the amyloid nucleation score came to 0.653 ± 0.64. To RGAQLIRRSFKTVAGLGFIM belongs -0.767 ± 1.4; to RGCVGRSFSDEES, -1.22 ± 1.5. In turn, RGDLF returned an amyloid nucleation score of 3.04 ± 0.07.

RGFMWLACITCFYAVCYNVS returned an amyloid nucleation score of 0.005 ± 0.45. In turn, RGFQTKSKGLARRSMYKCWE registered an amyloid nucleation score of -0.275 ± 0.31.

The substance RGFWLERCSWTF gave an amyloid nucleation score of -0.003 ± 0.37. As for RGGMF, the amyloid nucleation score was -0.252 ± 0.67. The result for RGGNIVKHRLFGPDGGAYWK reads -0.591 ± 0.79; that for RGGRRDWLCIFRGRLGVA, -1.08 ± 0.78.

RGISYLV had an amyloid nucleation score of -0.212 ± 0.68. The result for RGLVFEGKLAFTVATVVFFW reads -1.19 ± 1.4; that for RGRRDAGGYRSKSFLGAWGV, 0.837 ± 0.21. RGTGLICCTNVCGRTWKGHN: the amyloid nucleation score stood at 7.406 ± 0.047. The result for RHALIYMVQVAQAGWGGLEV reads -0.767 ± 0.78; that for RHMRFPWLKAHVIFIMQWQR, 1.16 ± 0.54. In turn, RHRVQTTPSSMSFV returned an amyloid nucleation score of -0.388 ± 0.96.

For RHSLIFDRTGRGYGARVPVE, the amyloid nucleation score entry was “inactive”. As for RHSSYIGMCRT, the amyloid nucleation score came out at 1.66 ± 0.56. The substance RHTETSLASSARKPALNPT gave an amyloid nucleation score of 0.197 ± 0.41. On to RHVYW, for which the amyloid nucleation score turned out to be 0.551 ± 0.39. For the substance RIAFFS, the amyloid nucleation score was found to be 1.25 ± 0.57. For the substance RIAVWSSGSYCMYYTCWCNH, the amyloid nucleation score is -0.191 ± 0.24. To RIDARILLITCL belongs -1.51 ± 2.4. The result for RIDCYW reads -0.858 ± 1.1; that for RIDQNICGIVNMVFR, 6.311 ± 0.047. The result for RIGFPSQSGLLVVAVLTQSA reads -0.379 ± 0.43; that for RILKMYTYVLTMADHVLNKS, 0.21 ± 0.2. RIMYSRLDYWLAYPVISERG returned an amyloid nucleation score of -0.057 ± 1.4. RINQVTGVVQLVFRCRNSRL registered an amyloid nucleation score of 7.643 ± 0.047. To RINSGHIK belongs 0.247 ± 0.33. RIPRFLNSLSEYYYLDFHYG: the amyloid nucleation score was found to be 1.15 ± 0.23. Substance RISLRYGQRC gave an amyloid nucleation score of 0.356 ± 0.28. RISSVT displayed an amyloid nucleation score of 0.17 ± 0.86. Consider RITAVRGVCLFSADSV, for which the amyloid nucleation score was -0.175 ± 0.26. To RIVEGWDTLSFLFRKGCEFF belongs 1.2 ± 0.56.

As to RKAIFTSFSQ, the amyloid nucleation score entry was “inactive”. RKCEDGFWGKRDSATKGP had an amyloid nucleation score of 0.034 ± 0.29. The substance RKCLESTTRSFLAVRS came in with an amyloid nucleation score of 3.3 ± 0.097.

RKDVLEGADSMTMVRRSSLF yielded an amyloid nucleation score of -0.286 ± 0.35. Take RKFRNKAIISIIDVYRPAAI: the amyloid nucleation score came to 1.01 ± 0.62. Substance RKIVYVYEDVVRLNTCRISS showed an amyloid nucleation score of 0.034 ± 0.93. Consider RKRPTGTHAVDVSRGFT, for which the amyloid nucleation score was 1.27 ± 0.71.

RKTNLGWHSICRA came in with an amyloid nucleation score of -0.435 ± 0.28. As for RLAQYHMYIKFETGYN, the amyloid nucleation score turned out to be 1.23 ± 0.36.

Substance RLAVKDNVCKLDMMSGCCLS showed an amyloid nucleation score of 5.45 ± 0.059. The result for RLCPENLRTNFKCVLNFMVT reads 4.81 ± 0.12; that for RLCPSCLVKWMTLWFVWIVR, 0.769 ± 0.41; that for RLCVVRDRFIGPIRRAFLHP, “inactive”. To RLDSPDVVSAFCEAALASAS belongs 0.136 ± 0.76.

On to RLEADYLTVIESVGHSATGS, for which the amyloid nucleation score entry is “inactive”. Substance RLFLVEFIWNMR displayed an amyloid nucleation score of 0.958 ± 0.71. For the substance RLFYTRSDSGGVRLVVLAVG, the amyloid nucleation score was found to be 0.003 ± 1.2. The substance RLGHDRIFSIRNSQS yielded an amyloid nucleation score of -0.287 ± 0.58. The substance RLIFEVFYLTFRVLT gave an amyloid nucleation score of -0.457 ± 0.39. RLLCCFCTWTLQMFCYSGCC had an amyloid nucleation score of 5.981 ± 0.053. Turning to RLLFLFVHVSYGI, the amyloid nucleation score worked out at 0.014 ± 0.47. Turning to RLLPYILMTFLHEYVGAGYE, the amyloid nucleation score amounted to 0.561 ± 0.37. With RLMNFE, the amyloid nucleation score is -0.257 ± 0.43. As for RLQSKLLHCS, the amyloid nucleation score was -0.169 ± 0.45. Consider RLSLETIVASFIYCCCAKFA, for which the amyloid nucleation score came to 1.66 ± 0.5.

The substance RLSVVDELLCVLILGFRCYT yielded an amyloid nucleation score of 0.372 ± 1.4. Take RLVESRLCASCVDGG: the amyloid nucleation score was -0.166 ± 0.46. For RLVLNCRYNYCSREFVFYAV, the amyloid nucleation score worked out at 0.292 ± 0.35. The substance RLVNPRDCKFNDTRTFCSRR displayed an amyloid nucleation score of 0.118 ± 0.52. Consider RLVTYPSVLSSVSEGSGRGG, for which the amyloid nucleation score is 1.05 ± 0.66. On to RLYLNDNTLSCF, for which the amyloid nucleation score is -0.001 ± 0.22. In turn, RMFVGWHSLERIL returned an amyloid nucleation score of 1.21 ± 0.43. With RMMSVGALGQG, the amyloid nucleation score amounted to 0.323 ± 0.76. The result for RMRATLDLSFWFGKEQYARV reads 0.389 ± 0.45; that for RMYIHMYS, 1.32 ± 0.33; that for RMYYT, -1.52 ± 0.82. To RNFLNAYW belongs -0.307 ± 0.85; to RNGLALRLTNTTRSTYLSRQ, -0.166 ± 1.1; to RNIWNLVLDKNAHMNCFMTH, 0.087 ± 0.46.

Consider RNNSVLLLSSYANKRYSPAW, for which the amyloid nucleation score was -0.439 ± 0.78. RNQFDYDRWYVMRSHYRVIC came in with an amyloid nucleation score of -0.526 ± 0.58.

The values are drawn from the supplement of paper PMC12042874.
